The results in this text go back to a protein production outcome set (Wang et al. 2014).

This series is described as follows: label from the status in PepcDB records.
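Also: failed if final PepcDB status was selected cloned or expressed and not failed if soluble or beyond.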

Take “MAQINFEGLRELHDCVNYLLHHCPKTRESLSQQGQEKWTEQVSEASLRMLDICNVSKDVMTLVKHSLQDLQLTLRGNESSDVNEKIAAYNRYKNKLKKETLKCLNCLKNMKGNEGRVAMPIEQNLLFVTEVLKEVRRVVVTMVESLFSLGCIPWLEKRSSKGSLSSIFSIRSSYLLDDEWDETAVQSATTRLEAAEITVVELEIELESIFRRLIQTRVSLLNILTN”: the protein production result is “failed”.
To “MAQKLEAKGGEMGDVWDDGVYENVRKVYVGQAQYGIAFVKFEYVNGSQVVVGDEHGKKTELGVEEFEIDADDYIVYVEGYREKVNDMTSEMITFLSIKTFKGKTSHPIEKRPGVKFVLHGGKIVGFHGRSTDVLHSLGAYVSLSSTIKLLGKWIKVEQKGEGPGLRCSHGIAQVGNKIYSFGGEFTPNQPIDKHLYVFDLETRTWSISPATGDVPHLSCLGVRMVSVGSTLYVFGGRDASRQYNGFYSFDTTTNEWKLLTPVEEGPTPRSFHSMAADEENVYVFGGVSATARLNTLDSYNIVDKKWFHCSTPGDSLTARGGAGLEVVQGKVWVVYGFNGCEVDDVHYYDPVQDKWTQVETFGVRPSERSVFASAAIGKHIVIFGGEIAMDPLAHVGPGQLTDGTFALDTETLQWERLDKFGGEEETPSSRGWTASTTATIDGKKGLVMHGGKAPTNDRFDDLFFYGIDSA” belongs “not failed”; to “MAQKMTGALVFDERTDRYDIRFDLNSYYGGLHCGECFDVFVRGKWKPTRIEYGDNWYLVGIRAEDLNGLRVRILEHHHHHH”, “not failed”; to “MAQKTLLIITDGIGYRKDSDHNAFFHAKKPTYDLMFKTLPYSLIDTHGLSVGLPKGQMGNSEVGHMCIGAGRVLYQDLVKISLSLQNDELKNNPAFLNTIQKSPVVHLMGLMSDGGVHSHIEHFIALALECEKSHKKVCLHLITDGRDVAPKSALTYLKQMQNICNESIQIATISGRFYAMDRDKRFERIELAYHSLMGLNHTPLSPSEYIQSQYDKNITDEFIMPACFKNYCGMQDDESFIFINFRNDRAREIVSALGQKQFSGFKRQVFKKLHIATMTPYDNTFPYPVLFPKESVQNTLAEVVSQHNLTQSHIAETEKYAHVTFFINGGVETPFKNENRVLIQSPKVTTYDLKPEMSAKEVTLAVLEQMKLGTDLIIVNFANGDMVGHTGNFEASVKAVEAVDACLGEILSLAKKLDYAMLLTSDHGNCERMKDENQNPLTNHTAGSVYCFVLGDGVKSIKNGALNNIASSVLKLMGLKAPATMDEPLF”, “failed”.
For the sequence “MAQPDREARPQFSHPTRQILTMLIVIGLSGFGVFVAMPRVLPVFQANPYLNGFILLVFIIGVLACFWQVVQLIGSVRWIEDFAAGQEREDTTPPSMLAPLASLLRSRAARMQISSSSTRSILDSVAERIEEEREITRYITNVLIYLGLLGTFFGLATTIPAVVDTIRSLNPQEGEEGLAVFNRLMTGLEAQLGGMGTAFGSSLLGLAGSLIVGLLELFTGHGQNRFYRELEEWLSTITRVGFSSGEEGHSESGAIAGVIDTMVEQMDALHAMFAASEEGRAEISGKLGALVETIAEMNQRQAETEDVTAALDRVAAGQETLIDFLREQGAHDGIDAESRMRLRSIDVQMLRILEEISAGRQESMAELRKDIELLAKALSVPRRPLRGVTRDEG”, the protein production result is recorded as “failed”.
As to “MAQPLFSLDGQSLITPQSVSNKFPSPHNHNETDRLRIAEAEFAVVINIAVQRFAAGKNLPDAVRWLIGQLHDIRQKFGAAVWQKIIPIIQAHPSATILQQCPFTRWSFEKPRGYSGDAGLIDFIYGHPAVAEEVARSTPLGLNIFEYTINAPGPVAVRERRDTLTRYVDETAVRTGSDTEILAIAAGHLREAEASKALAEGRLKRWVALDQDPESIGSISSQFHGTSVQPINGSVRGLLARKHQIGTFDLIYAAGLYDYLTDKVAIRLTQICMEMLKPGGVFLFANFSDEMADDGYMESYMNWELLQRSEADMWRITNAGATQNAVDKTVWFGANRNIIYSTIRKRS”, the protein production result is listed as “failed”.
The same measure for “MAQQFKDYFSEKSDVYRSYRPGYPTELFAWLAGLPARRDAALDCGCGTGQASVALAEHFARVYAVDPSAGQIKSATPHKRVEYRVAPAEETGLPDASVDLVIAAQALHWFDFSRFYAEVRRVARGGAVFAAFTYGLLAIDDEIDRIIGRFYRDVIGPYWPPERAHVDAGYRTLPFPFAEIETPTFAMKAEWDLGHLMGYFETWSAVKEYRRLRGDDPLELVAGDLATAWGDPALVRQVSWPLVLRAGRIE”: “failed”; for “MAQQNAEHIADWRGQSGERWAAYQARLDAMMAPFGQAAIEAAAPTTGERVLDVGCGAGASSRDLAARVGAEGHVLGVDISEPLIERARALAPQDMSVVFRVTDASRAELPDGAFDILFSRFGVMFFNDPTGAFAHMRRALKPGGRAAFVCWRGVTENDWMRLPMGAMKGILPSMTPPGPEAPGPFSFGDQERVERILTKAGFTDIAIEPFDASVSFGEGATRDAALDDAVNMTLEVGPLSRVLADQPDDIRDRASVAVRAALSGCPGERSVMINGATWIVTARNPAS”: “failed”.
For “MAQQQGMDSALFERRLRPVYDNLEVGNNRKALQESEKLLRKHPNLLCARALKGLSLLRLGRYDESHGCLQTVAEEKPTDDSTLQVLSFCYREMEQLDKIVELYQHAVKQNPGNEELLAHLFISHVRVEDYKAQQAVALQLYKAQPKNAYYFWSVISVVFQGIRGPESALPEKRKIYLGLAQRMVDKHIKEGKMETEQEAFLYLHILKLQNKYQEAWEFLTGELCAKLYPGAPVSMKFELLKELGNWRELNELLQQLLDADRDRWDFYKEYIQSSFELLKLTPQGVENGDKDSLARCQEFLQRIIDSSERKKRGPYLARLELHQRMRAEQLPAEKLIGDFDEMVIEYFRLFGDKSCCTHDIALFLPSISMNQRQALASKLLLESGVTSTSLPKNKEQLQKHLCALQISRMCGSHMDLPADHLLAFYTALKLHYEHGRTTFGKKLLATEMGPSDAYALLAANVMYDLSRRENKSDHLFEALCLLQYVLRNSTSNFHVKLLSLKIYHLFGCQVGAQEMYEYLDIKQIQLDSMGYVHCQLLALGGRFSGNRNVYDATLKFFTNSYKERLEYIALTYRFCTFSKMEEFMNFKERLTNSLQYVACSVEAQICDLVSCYGNITQNLSAYVAMSIEPAEDRIAWHELSDNRDLGAIIRWDPLHEVDAAEERRESFDQEVEVLQVRSLMLRLFASFIDLYHGAGLKDSPAGAETATLELLRESWTGLFQRLRVMNYKPLAQKFLVNLLPTRLHLLLDMPYERFFDDLAQLVLDLQSGSAKLAEQCKRVGDNVIATMELCVQTINESNESNGIDGLWKRRGQQQKVAASLEMLSLYAFLLSVLNDKLQVSSKTKTKKKPVENKVDGPQPISEKERSQMLQELMRQLKHKFEACDTAIRSWKAPVLPRDLSSFMSDMSLKPEVEATLIGDVSATFKDSHELMVTELRNLLKDKIRMVAK”, the protein production result is listed as “failed”.
“MAQQTPLYEQHTLCGARMVDFHGWMMPLHYGSQIDEHHAVRTDAGMFDVSHMTIVDLRGSRTREFLRYLLANDVAKLTKSGKALYSGMLNASGGVIDDLIVYYFTEDFFRLVVNSATREKDLSWITQHAEPFGIEITVRDDLSMIAVQGPNAQAKAATLFNDAQRQAVEGMKPFFGVQAGDLFIATTGYTGEAGYEIALPNEKAADFWRALVEAGVKPCGLGARDTLRLEAGMNLYGQEMDETISPLAANMGWTIAWEPADRDFIGREALEVQREHGTEKLVGLVMTEKGVLRNELPVRFTDAQGNQHEGIITSGTFSPTLGYSIALARVPEGIGETAIVQIRNREMPVKVTKPVFVRNGKAVA”: the protein production entry is given as “not failed”.
As for “MAQRSILVGQIWHEGHSFNPILTREKDFLFLRGEAVLEEARASSTALSGIVKTAEALGYRCVPSISARARPGGAIEQKVFDNIVDEFVQAARMQDFDAICLDLHGATLAEHTLDTEGYLLSRLREVVGNDIMISLALDLHAYLTPQMVEQATIITSFRTTPHADIEETGVRAMTLLDSLSNETRPPRAIYSLIPFLTRGNDETWSGPLAEIGAAADRWRARSDVVDLSIFNVHPFLDVPGYGQVVLAYDNGSGAAIDACRDLSDMLWKARDEFQEQLMSVDKALEIARTSRQLLALGDQGDRVMGAGPGDSPEIARVALEHFPGLKVAVPVYDPQAVRTAREAGENATVRMAVGGAFTHSVAPLERDWTVRKLCRARFTNIGPYMAGTEADFGDAAVLTCDAVTVIVTTMAPNVHDPAFYEAVGVPLASQQAVVARAANHYKLSFADIARTITVDTPGLTAFKPHQFPFTQARPFYPLDIVQWSFAPLECNKVG”, the protein production entry is recorded as “not failed”.
For “MAQTQGTRRKVCYYYDGDVGNYYYGQGHPMKPHRIRMTHNLLLNYGLYRKMEIYRPHKANAEEMTKYHSDDYIKFLRSIRPDNMSEYSKQMQRFNVGEDCPVFDGLFEFCQLSTGGSVASAVKLNKQQTDIAVNWAGGLHHAKKSEASGFCYVNDIVLAILELLKYHQRVLYIDIDIHHGDGVEEAFYTTDRVMTVSFHKYGEYFPGTGDLRDIGAGKGKYYAVNYPLRDGIDDESYEAIFKPVMSKVMEMFQPSAVVLQCGSDSLSGDRLGCFNLTIKGHAKCVEFVKSFNLPMLMLGGGGYTIRNVARCWTYETAVALDTEIPNELPYNDYFEYFGPDFKLHISPSNMTNQNTNEYLEKIKQRLFENLRMLPH”, the protein production result is given as “failed”.
With “MAQVPAGKNRSGQLSKQTGDAWENQARRWLEGQGLRFIAANARERGGEIDLIMRDGTVTVFIEVRYRRSARYGDAAASVTPQKQQRLLKAARLWLCRQ”, the protein production result was “failed”.
To “MAQYQALYRQWRPRTFAEVVGQEHITRTLRNALRTGRLVHAYLFCGPRGTGKTSTAKILARAINCLAPREGEPCNECANCRRILAGNSLDVLEMDAASNRGIDEIRNLIEKIPLGPVEGRYKVYIIDEVHMLTQEAFNALLKTLEEPPAHAVFILATTEPRKVLPTILSRCQRFDFHPLTVQAIAGRLQEVAAANGVEIEPGALSLLSRKAAGGLRDALSLLDQILASGTRGPVTAGQVAVTLGTARLDTLLALTDALATGDGAGVLNLVDKALASGIEPRRLLEDLLDHTRNLLLLKVDPGAGSLTGLLPEEVEQVAAQARQFDHHRLLDLMERLQQGGAALRRSNQPRVILEMTLAGFLVAPGPSLEGLARRVAELEARLAALEGSAPSRTREKVATRNQGEGGRPPVAPGSRADAGGQERGNSGPLEAPGAGSPAGRARVINRSREFPQAAGRDRAGLAGPETATGLEPGSPASPGLELAVVQEHWPEVLAAARRESIQLQAFLREGEPVAIDGDTLTLAVKADFHRGMLEQPGNRQKVEKALAAVFGRPLKVVITSGKPSPPGDTGDTLTRLVNFFGADKVEIKD” belongs “failed”; to “MARGPPRALASTRSPSTHMTAISNPDSEDLHIIIAGAGRVGHRTARVLRDQGHEAYLIDKDPDIVEDARQALGATVIEGDATDPKVLAQADPERADVLAALTETGATNFAICAVVKHLTGDIRTVARIERPDQLDEEGTFFDRVVYPERAGAKSAVNQILTGDTRVFEDVGGDLDVAEVQVAPEAPAAGKQLDAAALPDQSHVVFDVTNDEVPQPSTELVPGHRYLIAAAPGVAREARRRLVG”, “failed”.
As to “MARGREAVTLLLVGWGYAPGMQTLEALDAVRRADVVYVESYTMPGSSWLYKSVVEAAGEARVVEASRRDLEERSREIVSRALDAVVAVVTAGDPMVATTHSSLAAEALEAGVAVRYIPGVSGVQAARGATMLSFYRFGGTVTLPGPWRGVTPISVARRIYLNLCAGLHTTALLDVDERGVQLSPGQGVSLLLEADREYAREAGAPALLARLPSVLVEAGAGGGHRVLYWSSLERLSTADVEGGVYSIVIPARLSGVEEWLLAAASGQRRPLEYDRSVYETVEENCKKGVYMEPV”, the protein production result is listed as “not failed”.
As to “MARLIGFKMAEVHRGRIVMQLDPDQSLENTAGLLHGAIAAALLDTAMGCAISTQQPAGQGSVTMDLKLSYLRPLSVRSGTIVAEGRVVKLGRQSSYTEGFVYDGAGKLAVHATATFAMLGAGPLEHHHHHH”, the protein production result is reported as “failed”.
